Laboratory results taken from patent US20250340646A1 (ELPIS BIOPHARMACEUTICALS, published 2025).
Like-named read-outs stand apart in the source and are kept apart here.

Columns and labels:
[1] = molecular target: T1, PD-L1 biotinylated (PD-1/PD-L1 TR-FRET assay kit, BPS 72038) (Homo sapiens (Human), UniProt Q9NZQ7 19-238, biotinylated; site not stated); experiment: HTRF competition, competitor PD-1-Eu
T1 construct: Kit reagent
Protocol: (§1) Briefly, 1× Immuno buffer 1 was made. […] For each well in 384-well plate, serial diluted scFvs and regents were added according to manufacturer's recommended volume. Samples were incubated at room temperature for 1.5 hours then the fluorescent intensity was read with Biotek Neo2 plate reader using manufacture's instrument setting for the assay.

[2] = molecular target: T1, PD-L1 biotinylated (PD-1/PD-L1 TR-FRET …); experiment: HTRF competition, competitor PD-1-Eu; remark: listed apart in the source
Protocol: as §1

[3] = molecular target: T2, human PD-L1-HIS tagged recombinant protein (human, UniProt Q9NZQ7 19-238); experiment: SPR, Protein A capture, PD-L1-HIS analyte
T2 construct: also called hPD-L1-HIS; PD-L1 HIS tagged protein

[4] = molecular target: PD-L1 on PD-L1 aAPC/CHOK1 cells (Promega J1250); experiment: cell-based or functional assay
biotinylated PD-L1 [5] = molecular target: T3, biotinylated PD-L1 (Homo sapiens (Human), UniProt Q9NZQ7 19-238, biotinylated; site not stated); experiment: ELISA, anti-human Fc capture, biotinylated PD-L1
Protocol: A 384 well plate was immobilized with anti-human Fc at final concentration of 2 μg/mL in 1×PBS in total volume of 25 μL per well. The plate was incubated overnight at 4° C. followed by blocking with 80 μL of superblock per well for 1 hour. […] In between each step, the plate was washed 3 times with 1×PBST in a plate washer. […] The plate was read at OD450 nm Biotek plate reader and the binding correlation was plotted with Prism 8.1 software.

[6] = molecular target: T4, recombinant His-tagged human IL-2Rα (human, UniProt P01589 22-213, limits assumed); experiment: ELISA, coated His-tagged human IL-2Rα, OD 450 nm
T4 construct: also called IL-2Rα-HIS; CD25
T4 sequence (looked up): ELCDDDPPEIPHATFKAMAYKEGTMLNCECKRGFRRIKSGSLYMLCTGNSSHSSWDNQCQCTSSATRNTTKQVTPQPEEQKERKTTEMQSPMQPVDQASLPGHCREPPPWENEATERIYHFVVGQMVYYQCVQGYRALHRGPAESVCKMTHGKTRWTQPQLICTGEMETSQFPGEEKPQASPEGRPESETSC
Protocol: (§2) For monovalent IL-2 Fc-fusion proteins, recombinant His-tagged human IL-2Rα and IL-2Rβ were added in 25 μL of 1×PBS to wells of 384-well plate and incubated overnight at 4° C. to coat the plates. Plates were washed three times with 0.05% Tween20/1×PBS. Plates were blocked with 100 μL of SuperBlock for 1 hr at RT and then washed 3 times with 0.05% Tween20/1×PBS. IL-2 mutants were diluted in 0.05% Tween 20/1×PBS from 1000 nM to 0 nM and added to plates for 2 hrs at room temperature. Plates were then washed 6 times with 0.05% Tween20/1×PBS. Anti-HisTag-HRP was diluted 1:5000 in 0.05% Tween20/1×PBS and added to plates for 1 hr at RT. Plates were then washed 6 times with 0.05% Tween 20/1×PBS, and TMB was added to develop blue color. Reactions were stopped with 2N […] and light absorbance at 450 nm was read on a BioTek plate reader. Absorbance versus IL-2 concentration is graphed for human IL-2Rα and IL-2Rβ.

[7] = molecular target: PD-L1 on PD-L1 aAPC/CHOK1 cells (Promega J1250); experiment: cell-based or functional assay; remark: listed apart in the source
[8] = molecular target: PD-L1 on PD-L1 aAPC/CHOK1 cells (Promega J1250); experiment: cell-based or functional assay; remark: listed apart in the source
[9] = molecular target: T2, human PD-L1-HIS tagged recombinant …; experiment: SPR, IgG on Protein A, PD-L1-HIS analyte
Protocol: The assay was run with Biacore T200 control software version 2.0. For each cycle, 1 μg/mL of anti-hPD-L1-IgG was captured for 60 seconds at flow rate of 10 μl/min on flow cell 2 in 1×HBSP buffer on Protein A sensor chip. […] The flow cells were then regenerated with Glycine pH 2 for 60 seconds at flow rate of 30 μl/min. […] The specific binding response unit was derived from subtraction of binding to reference flow cell 1 from antibody captured flow cell 2.

[10] = molecular target: T5, full-length human PD-L1 on K562 cells (human, UniProt Q9NZQ7 19-290); experiment: FACS, PD-L1/K562 cells, anti-hFc Alexa Fluor 647
T5 construct: also called PD-L1/K562; cell surface human PD-L1
Protocol: Cells were spun down at 1200 rpm for 5 minutes at 4° C. to remove primary antibodies. Cells were then washed once with 200 μL of full medium per well. […] Samples were spun down at 1200 rpm for 5 minutes at 4° C. and washed twice with 200 μL of 1×PBS per well. Reconstituted samples in 200 μL of 1×PBS and read on Attune NxT cytometer.

biotinylated PD-L1 [11] = molecular target: T3, biotinylated PD-L1; experiment: ELISA as described in Example 7 (value equals Table 17)
[12] = molecular target: T1, PD-L1 biotinylated (PD-1/PD-L1 TR-FRET …); experiment: HTRF competition, competitor PD-1-Eu; remark: listed apart in the source
Protocol: as §1

[13] = molecular target: T6, recombinant His-tagged human IL-2Rβ (human, UniProt P14784 27-240, limits assumed); experiment: ELISA, coated His-tagged human IL-2Rβ, OD 450 nm
T6 construct: also called IL-2Rβ-HIS; IL-15Rβ-HIS
T6 sequence (looked up): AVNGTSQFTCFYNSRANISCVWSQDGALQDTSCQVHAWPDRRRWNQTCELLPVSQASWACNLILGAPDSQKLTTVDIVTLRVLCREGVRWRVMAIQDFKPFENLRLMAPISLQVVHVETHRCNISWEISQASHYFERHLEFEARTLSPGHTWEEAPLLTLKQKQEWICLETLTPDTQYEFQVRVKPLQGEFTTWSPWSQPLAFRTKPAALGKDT
Protocol: as §2

[14] = molecular target: T2, human PD-L1-HIS tagged recombinant …; experiment: ELISA, coated PD-L1-HIS, anti-hFc HRP
Protocol: The plate was incubated overnight at 4° C. followed by blocking with 80 μL of superblock per well for 1 hour. […] In between each step, the plate was washed 3 times with 1×PBST in a plate washer. The plate was then developed with 20 μL of TMB substrate for 5 min and stopped by adding 20 μL of 2N sulfuric acid. The plate was read at OD450 nm Biotek plate reader and then plotted in Prism 8.1 software.

B1: anti-PD-L1 IgG1 antibody EP205/EP206 (2019EP69-F03) (antibody, V domains shown)
VH: QVQLVQSGAEVKKPGSSVKVSCKASGGTFSSYAISWVRQAPGQGLEWMGGIIPIFGTANYAQKFQGRVTITADESTSTAYMELSSLRSEDTAVYYCARDKWYGSAWRGDYWGQGTLVTVSS
VL: QSVLTQPPSASGTPGQRVTISCSGSYSNIGSNFVNWYQQLPGTAPKLLIHFNNQRPSGVPDRFSGSRSGTSASLAISGLQSEDEADYFCSTWDDSLKGPIFGGGTKLTVLG
notes: also called EP206/EP205
IC50 [1]: 128 nM
IC50 [2]: 128 nM
Kd [3]: 0.363 nM
koff [3]: 0.000347 s⁻¹
kon [3]: 956000 M⁻¹ s⁻¹
NFAT reporter EC50 [4]: 0.549 nM
EC50 (biotinylated PD-L1 [5]): 0.26 nM
binding result [6]: no binding (tested: LOG(IL-2(nM)) about 1.8 (about 70 nM))
NFAT reporter EC50 [7]: 0.549 nM
Jurkat Reporter assay EC50 [8]: 0.55 nM
Kd [9]: 0.363 nM
EC50 [10]: 0.00668 nM
EC50 (biotinylated PD-L1 [11]): 0.164 nM
IC50 [12]: 128 nM
binding result [13]: no binding (tested: LOG(IL-2(nM)) about 1.8 (about 70 nM))
EC50 [14]: 0.164 nM
